In patent publication US20260078196A1 (TJ BIOPHARMA SHANGHAI, published 2026) one finds EC50, kon and Kd data, which are given here for 3 molecules.

Experiment [1] has as its target T1, human CLDN6 on cells (human, UniProt P56747 1-220).
T1 construct: CHO-K1 cells stably expressing human CLDN6, and OVCAR3 / OV90 cells with endogenous CLDN6; also called CHO-K1-CLDN6; CLDN6 on OVCAR3 and OV90 cells
T1 sequence: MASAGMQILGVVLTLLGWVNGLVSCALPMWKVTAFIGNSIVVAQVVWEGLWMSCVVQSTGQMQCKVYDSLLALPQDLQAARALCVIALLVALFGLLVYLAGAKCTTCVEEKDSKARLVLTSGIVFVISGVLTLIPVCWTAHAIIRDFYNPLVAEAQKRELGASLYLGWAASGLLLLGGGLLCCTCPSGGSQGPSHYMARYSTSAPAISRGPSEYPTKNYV
Put plainly: flow cytometry (GMFI) on CHO-K1-CLDN6 cells. In general terms: A flow cytometer gives signals particle by particle.

Experiment [2] deals with T1, human CLDN6 on cells. The experiment in a line: flow cytometry (GMFI) on OVCAR3 cells.
Experiment [3] concerns the target T1, human CLDN6 on cells. Put plainly: flow cytometry (GMFI) on OV90 cells.
For experiment [4], the target named is T2, soluble recombinant human 4-1BB (human, UniProt Q07011 24-186).
T2 construct: ELISA antigen
T2 sequence (Q07011 24-186 limits assumed): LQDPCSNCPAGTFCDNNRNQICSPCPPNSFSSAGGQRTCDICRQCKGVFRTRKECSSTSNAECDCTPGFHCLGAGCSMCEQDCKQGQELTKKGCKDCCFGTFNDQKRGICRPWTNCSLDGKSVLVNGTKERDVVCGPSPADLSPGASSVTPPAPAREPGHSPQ
Put plainly: ELISA (OD450) on soluble recombinant human 4-1BB. (In an ELISA, binding on a coated surface is turned into a signal by an enzyme label.)

Experiment [5] has as its target T3, monomeric human 4-1BB (human, UniProt Q07011 24-186, limits assumed).
T3 construct: SPR analyte/ligand
The experiment in a line: SPR, monomeric human 4-1BB. For orientation: SPR reads the build-up and loss of mass on a sensor chip optically.

The next experiment deals with T4, 4-1BB on cells (human, UniProt Q07011 24-255).
T4 construct: Species is stated as human for section 2.2 as a whole, not for each cell line; also called HEK293 cells expressing 4-1BB; 4-1BB overexpressed HEK293 cell
T4 sequence (Q07011 24-255): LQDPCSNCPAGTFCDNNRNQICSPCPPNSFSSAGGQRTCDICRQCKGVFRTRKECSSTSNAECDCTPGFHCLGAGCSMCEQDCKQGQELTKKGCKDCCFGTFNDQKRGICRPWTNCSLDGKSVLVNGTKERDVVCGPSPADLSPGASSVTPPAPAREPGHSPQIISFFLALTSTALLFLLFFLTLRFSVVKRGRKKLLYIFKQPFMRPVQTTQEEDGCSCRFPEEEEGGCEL
Put plainly: flow cytometry (GMFI) on HEK293T-4-1BB cells.

In experiment [6] the target is T3, monomeric human 4-1BB. The experiment in a line: SPR, measured in parallel.
In experiment [7] the target is T5, HEK293-MUC16 (13810-14507) (human, UniProt Q8WXI7 13810-14507).
T5 construct: range 13810-14507; also called MUC16 overexpressed HEK293 cells
T5 sequence: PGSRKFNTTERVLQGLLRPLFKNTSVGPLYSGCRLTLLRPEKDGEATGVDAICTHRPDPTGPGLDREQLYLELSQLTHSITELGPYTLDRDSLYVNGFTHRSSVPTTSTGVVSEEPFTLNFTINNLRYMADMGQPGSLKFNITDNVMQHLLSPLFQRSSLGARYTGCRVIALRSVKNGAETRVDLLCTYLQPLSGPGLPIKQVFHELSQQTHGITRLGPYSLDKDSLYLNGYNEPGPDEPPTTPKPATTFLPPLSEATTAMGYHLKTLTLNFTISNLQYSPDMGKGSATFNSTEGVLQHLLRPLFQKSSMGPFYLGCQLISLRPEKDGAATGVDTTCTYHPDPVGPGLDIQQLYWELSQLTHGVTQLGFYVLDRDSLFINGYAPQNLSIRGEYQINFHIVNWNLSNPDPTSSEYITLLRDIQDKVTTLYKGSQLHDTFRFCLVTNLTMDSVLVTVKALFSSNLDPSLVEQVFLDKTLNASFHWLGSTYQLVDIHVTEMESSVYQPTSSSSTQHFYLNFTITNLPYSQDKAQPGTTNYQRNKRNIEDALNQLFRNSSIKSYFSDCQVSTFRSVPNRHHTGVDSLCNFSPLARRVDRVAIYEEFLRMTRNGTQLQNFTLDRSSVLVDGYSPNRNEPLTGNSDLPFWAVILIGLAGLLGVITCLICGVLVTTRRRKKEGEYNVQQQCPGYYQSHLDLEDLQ
The experiment in a line: flow cytometry (MFI GeoMean) on HEK293-MUC16 (13810-14507) cells; the curve lies on the Iso curve up to about 4 nM and reaches only about 8000 at 100 nM against 40000-75000 for the others; paragraph 397 says h3A5 does not bind these cells; no unit in the table, nM from the x axis.

Experiment [8] deals with T6, human MUC16 on cells (human, UniProt Q8WXI7 1-14507).
T6 construct: whole, on cells; also called huMUC16; MUC16 on OVCAR3 and SNU216 cells
Put plainly: flow cytometry (MFI GeoMean) on OVCAR3 cells, nM is the unit of the x axis Log10[Ab] (nM).

For experiment [9], the target named is T6, human MUC16 on cells. The experiment in a line: flow cytometry (MFI GeoMean) on SNU216 cells, nM is the unit of the x axis Log10[Ab] (nM).

For orientation: EC50 means the midpoint of the concentration-response curve. As usually defined, the kon is a measure of how fast the partners come together. The term Kd denotes the free concentration of one partner at which half of the binding sites on the other are occupied at equilibrium, for simple one-to-one binding. A high value points to weaker binding.

T3 sequence (Q07011 24-186 limits assumed): as the sequence (Q07011 24-186 limits assumed) above

B1: parental CLDN6-1 antibody (antibody, V domains shown)
VH: QVQLQESGPGLVKPSETLSLTCTVSGYSITSGYYWNWIRQPPGKGLEWMGYISYSGSNNYNPSLKNRVTISRDTSKNQFSLKLSSVTAADTAVYYCARGGYYFDYWGQGTLVTVSS
VL: DIVMTQSPDSLAVSLGERATINCKSSQSLLNTNNQKNYLAWYQQKPGQPPKLLIYFASTRESGVPDRFSGSGSGTDFTLTISSLQAEDVAVYFCQQHYNAPRTFGGGTKVEIK
Turning to B1, the EC50 with human CLDN6 on cells [1] amounted to 0.452 nM; with human CLDN6 on cells [2], 5.1 nM; with human CLDN6 on cells [3], 1.2 nM.

B2: parental anti-4-1BB sdAb antibody conjugated with IgG1 Fc fragment (Fc fusion)
chain: QVQLQESGGGLVQPGGSLRLSCAASGYTYSSNCMGWFRQAPGKGLEGVAVICTGGGSPSYADSVKGRFTISRDNAKNTLYLQMNSLRAEDTAVYYCAADLLRAGTPLSSYEFNYWGQGTLVTVSS
notes: also called 4-1BB sdAb-Fc; not shown: IgG1 Fc fragment
As for B2, the EC50 in experiment [4] came out at 0.071 nM; in the experiment with 4-1BB on cells it was 0.131 nM. Moreover, in the experiment with monomeric human 4-1BB [5], the kon amounted to 383000 M⁻¹ s⁻¹. Moreover, in the experiment with monomeric human 4-1BB [6], the Kd turned out to be 4.39 nM.

B3: 3A5 (antibody, human IgG1, kappa, V domains shown)
VH: EVQLVESGGGLVQPGGSLRLSCAASGYSITNDYAWNWVRQAPGKGLEWVGYISYSGYTTYNPSIKSRFTISRDTSKNTLYLQMNSLRAEDTAVYYCARWTSGLDYWGQGTLVTVSS
VL: DIQMTQSPSSLSASVGDRVTITCKASDLIHNWLAWYQQKPGKAPKLLIYGATSLETGVPSRFSGSGSGTDFTLTISSLQPEDFATYYCQQYWTTPFTFGQGTKVEIKR
notes: Benchmark anti-MUC16 antibody; printed both as h3A5 and 3A5; also called h3A5; benchmarker 3A5
Take B3: the EC50 in experiment [7] was determined as 63.4 nM; in the experiment with human MUC16 on cells [8] it was 0.799 nM; with human MUC16 on cells [9] it was 0.571 nM.
